Data published in patent publication US20260166085A1 (BEAM THERAPEUTICS, published 2026).
Changes are numbered by the printed parent chain.

B1: ABTx052 variant VL_F91T (antibody, human IgG1, V domains shown)
VH: QVQLVQSGAAVKKPGESLKISCKGSGYRFTSYWIGWVRQMPGKGLEWMGIIYPGDSDTRYSPSFQGQVTISAGKSISTAYLQWSSLKASDTAMYYCARHGRGYNGYEGAFDIWGQGTMVTVSS
VL: AIQLTQSPSSLSASVGDRVTITCRASQGISSALAWYQQKPGKAPKLLIYDASSLESGVPSRFSGSGSGTDFTLTISSLQPEDFATYYCQQTNSYPLTFGGGTKVEIK
B2: ABTx052 variant VL_N92R (antibody, human IgG1, V domains shown)
VH: B1 VH
VL: B1 VL with T91F, N92R
B3: ABTx052 variant VL_S93G (antibody, human IgG1, V domains shown)
VH: B1 VH
VL: B1 VL with T91F, S93G
B4: ABTx052 variant VH_R59K (antibody, human IgG1, V domains shown)
VH: B1 VH with R59K
VL: AIQLTQSPSSLSASVGDRVTITCRASQGISSALAWYQQKPGKAPKLLIYDASSLESGVPSRFSGSGSGTDFTLTISSLQPEDFATYYCQQFNSYPLTFGGGTKVEIKR
B5: ABTx052 variant VL_Y94H (antibody, human IgG1, V domains shown)
VH: B1 VH
VL: B1 VL with T91F, Y94H
B6: ABTx052 variant VH_N104D (antibody, human IgG1, V domains shown)
VH: B1 VH with N104D
VL: B4 VL
B7: ABTx052 variant VL_N92Y (antibody, human IgG1, V domains shown)
VH: B1 VH
VL: B1 VL with T91F, N92Y
B8: ABTx052 variant VH_G105A (antibody, human IgG1, V domains shown)
VH: B1 VH with G105A
VL: B4 VL
B9: ABTx030 (antibody, V domains shown)
VH: QVQLQESGGGLVKPGGSLRLSCAASGFTFSSYSMNWVRQAPGKGLEWVSSIGTISSYIYYADSVKGRFTISRDNAKNSLYLQMNSLRAEDTAVYYCARDYYGGLFDYWGQGTLVTVSS
VL: not shown
B10: ABTx202 (antibody, human IgG1, V domains shown)
VH: EVQLVESGGGLVQPGRSLRLSCAASGFTFDDYAMHWVRQAPGKGLEWVSGISWNSGTIGYADSVKGRFTSSRDNAKNSLYLEMNSLRAEDTALYYCAKDSPPGYCSSASCYGAFDIWGQGTMVTVSS
VL: EIVMTQSPGTLSLSPGERATLSCRASQSVSSSYLAWYQQKPGQAPRLLIYGSSTRATGIPARFSGSGSGTEFALTISSLQSEDFAVYYCQQYNFWPYTFGQGTKVEIK
B11: ABTx205 (antibody, human IgG1, V domains shown)
VH: B10 VH with S70N
VL: DIVMTQSPSFLSASVGDRVTITCRASQGISSYLAWYQQKPGKAPKLLIYAASTLQNGVPSRFSGSGSGTDFTLTITSLQPEDFATYYCQQSYSTPYTFGQGTKLEIK
B12: ABTx203 (antibody, human IgG1, V domains shown)
VH: B10 VH with S70N, S100W, P102S, Y104F, S109Y
VL: B11 VL
B13: ABTx206 (antibody, human IgG1, V domains shown)
VH: B10 VH with S70N, W117R
VL: B11 VL
B14: ABTx251 (antibody, human IgG1, kappa, V domains shown)
VH: B1 VH with N104D
VL: B4 VL with N92Y
B15: ABTx270 (antibody, human IgG1, kappa, V domains shown)
VH: B1 VH with N104D, G105A
VL: B4 VL with F91V, N92R
B16: ABTx272 (antibody, human IgG1, kappa, V domains shown)
VH: B1 VH with R59K, N104D, E107D
VL: B4 VL with F91V, N92R
B17: ABTx269 (antibody, human IgG1, kappa, V domains shown)
VH: B1 VH with R59K, N104D
VL: B4 VL with F91V, N92Y
B18: ABTx262 (antibody, human IgG1, kappa, V domains shown)
VH: B1 VH with N104D, G105A
VL: B4 VL with N92R, Y94S
B19: ABTx268 (antibody, human IgG1, kappa, V domains shown)
VH: B1 VH with R59K, N104D
VL: B4 VL with F91V
B20: ABTx261 (antibody, human IgG1, kappa, V domains shown)
VH: B1 VH with R59K, N104D, G105A
VL: B4 VL with F91T, N92R
B21: ABTx265 (antibody, human IgG1, kappa, V domains shown)
VH: B1 VH with R59K, N104D, E107D
VL: B4 VL with F91T, N92R
B22: ABTx267 (antibody, human IgG1, kappa, V domains shown)
VH: B1 VH with R59K, N104D, G105A, E107D
VL: B4 VL with F91T, Y94S
B23: ABTx273 (antibody, human IgG1, kappa, V domains shown)
VH: B1 VH with N104D
VL: B4 VL with N92R
B24: ABTx258 (antibody, human IgG1, kappa, V domains shown)
VH: B1 VH with R59K, N104D, G105A
VL: B4 VL with F91V, N92R
B25: ABTx263 (antibody, human IgG1, kappa, V domains shown)
VH: B1 VH with R59K, N104D, E107D
VL: B4 VL with F91V, N92Y
B26: ABTx256 (antibody, human IgG1, kappa, V domains shown)
VH: B1 VH with N104D, G105A
VL: B4 VL with F91T, N92Y

molecular target: T1, Wild type CD117 purified protein (human, UniProt P10721 26-520, limits assumed); experiment: binding kinetics, FIGS. 45A-45K
T1 construct: Protein used in BLI/kinetics and cryo-EM; also called wt CD117; Wt CD117
T1 sequence (P10721 26-520 limits assumed): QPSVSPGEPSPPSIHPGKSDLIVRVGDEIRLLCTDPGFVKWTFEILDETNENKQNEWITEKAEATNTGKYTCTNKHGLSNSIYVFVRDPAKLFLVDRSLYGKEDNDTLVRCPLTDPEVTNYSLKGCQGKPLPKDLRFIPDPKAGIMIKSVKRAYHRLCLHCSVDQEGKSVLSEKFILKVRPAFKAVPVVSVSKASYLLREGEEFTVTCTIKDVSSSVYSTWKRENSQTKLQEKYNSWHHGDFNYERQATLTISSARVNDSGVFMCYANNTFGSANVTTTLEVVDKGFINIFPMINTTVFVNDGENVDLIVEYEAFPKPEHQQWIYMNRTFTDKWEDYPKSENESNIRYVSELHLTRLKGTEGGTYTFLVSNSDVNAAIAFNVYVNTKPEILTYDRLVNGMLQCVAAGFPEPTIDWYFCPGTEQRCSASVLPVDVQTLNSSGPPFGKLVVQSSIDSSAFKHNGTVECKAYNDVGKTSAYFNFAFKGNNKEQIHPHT

Kd [nM] | koff [s⁻¹] | kon [M⁻¹ s⁻¹] | Binder
0.191 | 0.000104 | 543000 | B1
0.683 | 0.000434 | 635000 | B2
0.0716 | 4.81e-05 | 671000 | B3
0.986 | 0.000713 | 723000 | B4
3.16 | 0.00178 | 563000 | B5
0.495 | 0.000342 | 691000 | B6
0.841 | 0.000635 | 755000 | B7
0.254 | 0.000153 | 601000 | B8

molecular target: T2, CC128 variant of CD117 (Y259C + N260D) purified protein (human, UniProt P10721 26-520, limits assumed); experiment: binding kinetics, FIGS. 45A-45K
T2 construct: also called CC128-edited CD117 as purified protein
T2 sequence (P10721 26-520 Y259C/N260D limits assumed): as the sequence (P10721 26-520 limits assumed) above, with Y234C, N235D counted along it

binding result | Binder
no binding | B2
no binding | B4
no binding | B5
no binding | B7

molecular target: T3, CC200 variant of CD117 (S261G) purified protein (human, UniProt P10721 26-520, limits assumed); experiment: binding kinetics, FIGS. 45A-45K
T3 sequence (P10721 26-520 S261G limits assumed): as the sequence (P10721 26-520 limits assumed) above, with S236G counted along it

binding result | Binder
no binding | B2
no binding | B4
no binding | B5
no binding | B7

molecular target: T4, Cyno CD117 (cynomolgus, UniProt F6V858 26-520 (rhesus entry)); experiment: KD, method not stated (Table 8B)
T4 construct: also called cynomolgus CD117
T4 sequence (chain, as listed by the source): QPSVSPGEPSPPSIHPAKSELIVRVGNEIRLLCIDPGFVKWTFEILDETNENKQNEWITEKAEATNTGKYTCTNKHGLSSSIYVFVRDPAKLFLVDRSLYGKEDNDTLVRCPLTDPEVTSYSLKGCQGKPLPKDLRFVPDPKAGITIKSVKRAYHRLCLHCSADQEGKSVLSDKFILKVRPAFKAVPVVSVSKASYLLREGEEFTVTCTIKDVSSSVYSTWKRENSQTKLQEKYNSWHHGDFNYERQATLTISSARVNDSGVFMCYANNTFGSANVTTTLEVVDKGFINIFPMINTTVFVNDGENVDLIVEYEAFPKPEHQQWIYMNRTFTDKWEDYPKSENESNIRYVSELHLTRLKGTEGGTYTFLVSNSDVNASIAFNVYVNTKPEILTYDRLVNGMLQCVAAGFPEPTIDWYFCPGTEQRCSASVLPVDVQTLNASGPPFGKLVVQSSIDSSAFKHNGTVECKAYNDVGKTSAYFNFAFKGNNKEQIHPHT

Kd [nM] | Binder
0.83 | B9

molecular target: T1, Wild type CD117 purified protein; experiment: KD, method not stated (Table 8B)

Kd [nM] | Binder
0.449 | B9

molecular target: T1, Wild type CD117 purified protein; experiment: summary Table 75 (repeats Table 71)

Kd [nM] | Binder
2.42 | B10
2.07 | B11
6.62 | B12
1.26 | B13

molecular target: T5, Wild type CD117 expressed on cells (M07e cells, unedited human CD34+ HSPCs) (human, UniProt P10721 26-976); experiment: summary Table 75 (repeats Table 73)
T5 construct: Endogenous receptor on cells; also called wtCD117; WT CD117
T5 sequence (P10721 26-976 limits assumed): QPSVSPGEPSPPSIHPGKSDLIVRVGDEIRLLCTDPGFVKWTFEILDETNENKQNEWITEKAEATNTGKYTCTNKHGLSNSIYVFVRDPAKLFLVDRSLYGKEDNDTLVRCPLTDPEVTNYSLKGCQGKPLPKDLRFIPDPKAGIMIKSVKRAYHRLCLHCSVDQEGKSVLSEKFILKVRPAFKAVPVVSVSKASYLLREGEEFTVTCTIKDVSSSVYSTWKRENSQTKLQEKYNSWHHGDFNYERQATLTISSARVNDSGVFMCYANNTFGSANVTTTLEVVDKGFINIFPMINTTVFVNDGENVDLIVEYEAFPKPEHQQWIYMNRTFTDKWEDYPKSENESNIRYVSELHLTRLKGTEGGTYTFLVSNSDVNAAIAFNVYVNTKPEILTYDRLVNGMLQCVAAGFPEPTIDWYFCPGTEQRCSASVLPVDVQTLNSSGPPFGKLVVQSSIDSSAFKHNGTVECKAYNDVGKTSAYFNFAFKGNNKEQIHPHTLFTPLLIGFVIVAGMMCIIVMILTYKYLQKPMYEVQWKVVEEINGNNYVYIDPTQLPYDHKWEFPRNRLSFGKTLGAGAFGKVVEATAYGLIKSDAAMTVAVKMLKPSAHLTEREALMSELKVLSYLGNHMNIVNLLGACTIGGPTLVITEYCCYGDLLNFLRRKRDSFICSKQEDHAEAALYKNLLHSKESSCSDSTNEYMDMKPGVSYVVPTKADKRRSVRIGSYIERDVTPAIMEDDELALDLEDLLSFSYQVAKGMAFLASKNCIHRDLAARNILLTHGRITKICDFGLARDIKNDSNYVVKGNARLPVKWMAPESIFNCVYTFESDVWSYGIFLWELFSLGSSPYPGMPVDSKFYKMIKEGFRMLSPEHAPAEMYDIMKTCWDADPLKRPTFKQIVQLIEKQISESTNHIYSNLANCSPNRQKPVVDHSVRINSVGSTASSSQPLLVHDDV

EC50 [nM] | Binder
7.98 | B10
7.48 | B11
5.56 | B12
14.2 | B13

molecular target: T2, CC128 variant of CD117 (Y259C + N260D) …; experiment: binding kinetics grade, FIGS. 55A-55C

binding result | Binder
no binding | B14
no binding | B15
no binding | B16
no binding | B17
no binding | B18
no binding | B19
no binding | B20
no binding | B21
no binding | B22
no binding | B23
no binding | B24
no binding | B25
no binding | B26

molecular target: T3, CC200 variant of CD117 (S261G) purified …; experiment: binding kinetics grade, FIGS. 55A-55C

binding result | Binder
no binding | B14
no binding | B15
no binding | B16
no binding | B17
no binding | B18
no binding | B19
no binding | B20
no binding | B21
no binding | B22
no binding | B23
no binding | B24
no binding | B25
no binding | B26

molecular target: T1, Wild type CD117 purified protein; experiment: monovalent KD, CD117 titrated (FIGS. 73A-73E)

Kd [nM] | koff [s⁻¹] | kon [M⁻¹ s⁻¹] | Binder
2.42 | 0.00014 | 57800 | B10
2.07 | 0.000117 | 56600 | B11
6.62 | 0.000643 | 97100 | B12
1.26 | 5.07e-05 | 40300 | B13

molecular target: T5, Wild type CD117 expressed on cells …; experiment: flow cytometry on M07e cells, AF647 secondary (FIG. 76A)

EC50 [nM] | Binder
7.98 | B10
7.48 | B11
5.56 | B12
14.2 | B13
